B1: mAb 58 Fab (COVOX-58) (Fab, V domains shown)
VH: QVQLVESGGGLVQPGRSLRLSCAASGFTFDDYAMHWVRQPPGKGLEWVSGVSWNSGTIGYADSVKGRFIISRDNAKNSLYLQMNSLKAEDTALYYCAREVGGTFGVLISREGGLDYWGQGTLVTVSS
VL: SYELTQPPSVSVAPGQTARITCGGNTIGSKSVHWYQQRPGQAPVLVVYDDSDRPSGIPERFSGSNSGNTATLTISRVEAGDEADYYCQVWDSSSDRVVFGGGTKLTVL
B2: mAb 158 Fab (COVOX-158) (Fab, V domains shown)
VH: EVQLLESGGDLIQPGGSLRLSCAASGVTVSSNYMSWVRQAPGKGLEWVSIIYPGGSTFYADSVKGRFTISRDNSKNTLYLQMHSLRAEDTAVYYCARDLGSGDMDVWGKGTTVTVSS
VL: DIVMTQSPSFLSASVGDRVTITCRASQGISSYLAWYQQKPGKAPKLLIQAASTLQSGVPSRFSGSGSGTEFTLTISSLQPEDFATYYCQQLNSYRYTFGQGTKVEIK
B3: EY6A mAb (IgG) (antibody, V domains shown)
VH: EVQLVESGGGVVQPGRSLRLSCAASAFTFSSYDMHWVRQAPGKGLEWVAVISYDGSNKYYADSVKGRFTISRDNSKNTLYLQMNSLRAEDTAVYYCAKDGGKLWVYYFDYWGQGTLVTVSS
VL: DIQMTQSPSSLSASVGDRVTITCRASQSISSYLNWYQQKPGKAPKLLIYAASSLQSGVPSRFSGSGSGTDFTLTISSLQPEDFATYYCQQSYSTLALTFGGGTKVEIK
B4: Beta-55 mAb (IgG) (antibody, V domains shown)
VH: QVQLQESGPGLVKPSETLSLTCTVSGDSISSSRYYWGWIRQPPGKGLEWIGTFYYSGITYYNPSLKSRVTIFVDTSKNQFSLKLSSVTAADTAVYYCARPRPPDYYDNSGALLFDIWGQGTMVTVSS
VL: AIRMTQSPSTLSASVGDRVTIACRASQSISAWLAWYQQKPGKAPKLLIYKASSLESGVPSRFSGSGSGTEFTLTINSLQPDDFATYYCQQYISSSPWTFGQGTKVEIK

Key:
[1] = molecular target: T1, His-tagged SARS-CoV-2 RBD (early pandemic, Wuhan) (SARS-CoV-2, UniProt P0DTC2); assay: crystal structure; details: both partners purified
[2] = molecular target: T1, His-tagged SARS-CoV-2 RBD (early …); assay: SPR; details: both partners purified

| Binder | binding result [1] | Kd [2] [nM] |
| --- | --- | --- |
| B1 | binds |  |
| B2 | binds |  |
| B3 |  | 7.8 |
| B4 |  | 0.177 |

From article PMC8723827 (Cell, 2022)
